The record followed here is patent US20170129962A1 (Hoffmann-La Roche, published 2017).

One test addresses T1, TWEAK (human, UniProt O43508 94-249, limits assumed).
T1 construct: The method paragraph says only 'TWEAK'; also called human TWEAK; TNF-related weak inducer of apoptosis
T1 sequence (looked up): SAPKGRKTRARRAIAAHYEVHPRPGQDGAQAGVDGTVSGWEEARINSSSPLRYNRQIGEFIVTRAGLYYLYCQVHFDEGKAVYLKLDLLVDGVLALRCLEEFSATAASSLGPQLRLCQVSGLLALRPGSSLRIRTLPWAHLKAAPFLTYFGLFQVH
Briefly: SPR (Biacore), TWEAK amine-coupled on C1 chip, bispecific antibody as analyte, 1:1 Langmuir. As for the experimental part: Around 100 RU of TWEAK was immobilized on the C1 chip surface at pH 5.0 using an amine coupling kit supplied by the GE Healthcare. The sample and system buffer was PBS-T (10 mM phosphate buffered saline including 0.05% Tween 20) pH 7.4. Association was measured by injection the bispecific antibody in various concentrations in solution for 3 min at a flow of 30 μl/min starting with 50 nM in 1:1 serial dilutions. The dissociation phase was monitored for up to 10 min and triggered by switching from the sample solution to running buffer. The surface was regenerated three times by 30 sec wash with a 3 M MgCl2 solution at a flow rate of 30 μl/min. Bulk refractive index differences were corrected by subtracting the response obtained from a blank-coupled surface. Blank injections are also subtracted (=double referencing). For calculation of KD and other kinetic parameters, the Langmuir 1:1 model was used.
(§1) Binding of the multispecific antibodies to their respective target antigens, i.e. IL17 and TWEAK, was assessed by Biacore® as described in the general methods section.
(In SPR one partner is held on a chip, and binding of the other changes the refractive index at the surface.)

Test [1] has as its target T2, human IL17 (human, UniProt Q16552 24-155).
T2 construct: for that reason an apparent KD is reported; also called IL17-A
T2 sequence (looked up): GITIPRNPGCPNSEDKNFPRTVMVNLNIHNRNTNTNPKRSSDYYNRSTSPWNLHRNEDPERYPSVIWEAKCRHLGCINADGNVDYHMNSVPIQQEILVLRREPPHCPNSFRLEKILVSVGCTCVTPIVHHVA
As to the kind of experiment: SPR (Biacore), bispecific antibody captured by anti-human F(ab')2, human IL17 as analyte, 1:1 Langmuir. The protocol: (§2) Around 6000 resonance units (RU) of the capturing system (15 μg/ml goat anti human F(ab′)2; Order Code: 28958325; GE Healthcare Bio-Sciences AB, Schweden) were coupled on a CMS chip at pH 5.0 by using an amine coupling kit supplied by the GE Healthcare. The sample and system buffer was PBS-T (10 mM phosphate buffered saline including 0.05% Tween 20) pH 7.4. The bispecific antibody was captured by injecting a 50 nM solution for 90 sec at a flow of 10 μl/min. Association was measured by injection human IL17 in various concentrations in solution for 3 min at a flow of 30 μl/min starting with 50 nM in 1:1 serial dilutions. The dissociation phase was monitored for up to 10 min and triggered by switching from the sample solution to running buffer. The surface was regenerated twice by 60 sec wash with a 10 mM glycine pH 2.1 solution at a flow rate of 30 μl/min. Bulk refractive index differences were corrected by subtracting the response obtained from a goat anti human F(ab′)2 surface. Blank injections are also subtracted (=double referencing). For calculation of apparent KD and other kinetic parameters, the Langmuir 1:1 model was used.
as §1

Test [2] addresses T2, human IL17. Briefly: SPR (Biacore), bispecific antibody captured by anti-human F(ab')2, human IL17 as analyte, 1:1 Langmuir, apparent KD. As for the experimental part:
as §2, §1

Where only a bound is given, the exact number is not on record here.

B1: TweakIL17-0129 (bispecific antibody, human IgG4 S228P, kappa)
light 1: DIVMTQSPLSLPVTPGEPASISCRSSQSLVHSNGDTYFHWYLQKPGQSPQLLIYKVSNRFSGVPDRFSGSGSGTDFTLKISRVEAEDVGVYYCSQTTHAPFTFGQGTKLEIKRTVAAPSVFIFPPSDEKLKSGTASVVCLLNNFYPREAKVQWKVDNALQSGNSQESVTEQDSKDSTYSLSSTLTLSKADYEKHKVYACEVTHQGLSSPVTKSFNRGEC
heavy 1: EVQLVESGGGLVQPGGSLRLSCAASGFSLDSYGVHWVRQATGKGLEWVSVIWSDGTTTYNSALKSRFTISRENAKNSLYLQMNSLRAGDTAVYYCARDTHYRLYYYAMDYWGQGTTVTVSSASTKGPSVFPLAPCSRSTSESTAALGCLVEDYFPEPVTVSWNSGALTSGVHTFPAVLQSSGLYSLSSVVTVPSSSLGTKTYTCNVDHKPSNTKVDKRVESKYGPPCPPCPAPEFEGGPSVFLFPPKPKDTLMISRTPEVTCVVVDVSQEDPEVQFNWYVDGVEVHNAKTKPREEQFNSTYRVVSVLTVLHQDWLNGKEYKCKVSNKGLPSSIEKTISKAKGQPREPQVCTLPPSQEEMTKNQVSLSCAVKGFYPSDIAVEWESNGQPENNYKTTPPVLDSDGSFFLVSRLTVDKSRWQEGNVFSCSVMHEALHNHYTQKSLSLSLGK
light 2: DIQMTQSPSSVSASVGDRVTITCQASQNIYSNLAWYQQKPGKAPKLLIYTASYLASGVPSRFSGSGSGTDYTLTISSLQPEDFATYYCQTAYYNSRPDTVAFGGGTKVEIKSSASTKGPSVFPLAPCSRSTSESTAALGCLVKDYFPEPVTVSWNSGALTSGVHTFPAVLQSSGLYSLSSVVTVPSSSLGTKTYTCNVDHKPSNTKVDKRVESKYG
heavy 2: QVQLVQSGAEVKKPGSSVKVSCKASGFDFSTYYMSWVRQAPGQGLEWMGTVYVRQGTTYYASWLNGRVTITADESTSTAYMELSSLRSEDTAVYYCARGGYNYDDAFVIWGQGTLVTVSSASVAAPSVFIFPPSDEQLKSGTASVVCLLNNFYPREAKVQWKVDNALQSGNSQESVTEQDSKDSTYSLSSTLTLSKADYEKHKVYACEVTHQGLSSPVTKSFNRGECPPCPPCPAPEFEGGPSVFLFPPKPKDTLMISRTPEVTCVVVDVSQEDPEVQFNWYVDGVEVHNAKTKPREEQFNSTYRVVSVLTVLHQDWLNGKEYKCKVSNKGLPSSIEKTISKAKGQPREPQVYTLPPCQEEMTKNQVSLWCLVKGFYPSDIAVEWESNGQPENNYKTTPPVLDSDGSFFLYSRLTVDKSRWQEGNVFSCSVMHEALHNHYTQKSLSLSLGK
notes: CrossMAb CH1-CL, knob-into-hole with S354C/Y349C
Turning to B1, in the test with TWEAK, the Kd was < 0.1 nM; the koff (in general, a measure of how fast the partners let go of each other) amounted to 2.64e-05 s⁻¹; the kon (in general, a measure of how fast the partners come together) is 707000 M⁻¹ s⁻¹. In the test with human IL17 [1], this molecule came in with a koff of 0.000204 s⁻¹ and a kon of 1.09e+07 M⁻¹ s⁻¹. Besides, the Kd with human IL17 [2] was < 0.1 nM.

B2: TweakIL17-0049 (bispecific antibody, human IgG4 S228P, kappa)
light 1: DIVMTQSPLSLPVTPGEPASISCRSSQSLVHSNGDTYFHWYLQKPGQSPQLLIYKVSNRFSGVPDRFSGSGSGTDFTLKISRVEAEDVGVYYCSQTTHAPFTFGQGTKLEIKRTVAAPSVFIFPPSDEQLKSGTASVVCLLNNFYPREAKVQWKVDNALQSGNSQESVTEQDSKDSTYSLSSTLTLSKADYEKHKVYACEVTHQGLSSPVTKSFNRGEC
heavy 1: EVQLVESGGGLVQPGGSLRLSCAASGFSLDSYGVHWVRQATGKGLEWVSVIWSDGTTTYNSALKSRFTISRENAKNSLYLQMNSLRAGDTAVYYCARDTHYRLYYYAMDYWGQGTTVTVSSASTKGPSVFPLAPCSRSTSESTAALGCLVKDYFPEPVTVSWNSGALTSGVHTFPAVLQSSGLYSLSSVVTVPSSSLGTKTYTCNVDHKPSNTKVDKRVESKYGPPCPPCPAPEFEGGPSVFLFPPKPKDTLMISRTPEVTCVVVDVSQEDPEVQFNWYVDGVEVHNAKTKPREEQFNSTYRVVSVLTVLHQDWLNGKEYKCKVSNKGLPSSIEKTISKAKGQPREPQVCTLPPSQEEMTKNQVSLSCAVKGFYPSDIAVEWESNGQPENNYKTTPPVLDSDGSFFLVSRLTVDKSRWQEGNVFSCSVMHEALHNHYTQKSLSLSLGK
light 2: DIQMTQSPSSVSASVGDRVTITCQASQNIYSNLAWYQQKPGKAPKLLIYTASYLASGVPSRFSGSGSGTDYTLTISSLQPEDFATYYCQTAYYNSRPDTVAFGGGTKVEIKSSASTKGPSVFPLAPCSRSTSESTAALGCLVKDYFPEPVTVSWNSGALTSGVHTFPAVLQSSGLYSLSSVVTVPSSSLGTKTYTCNVDHKPSNTKVDKRVESKYG
heavy 2: QVQLVQSGAEVKKPGSSVKVSCKASGFDFSTYYMSWVRQAPGQGLEWMGTVYVRQGTTYYASWLNGRVTITADESTSTAYMELSSLRSEDTAVYYCARGGYNYDDAFVIWGQGTLVTVSSASVAAPSVFIFPPSDEQLKSGTASVVCLLNNFYPREAKVQWKVDNALQSGNSQESVTEQDSKDSTYSLSSTLTLSKADYEKHKVYACEVTHQGLSSPVTKSFNRGECPPCPPCPAPEFEGGPSVFLFPPKPKDTLMISRTPEVTCVVVDVSQEDPEVQFNWYVDGVEVHNAKTKPREEQFNSTYRVVSVLTVLHQDWLNGKEYKCKVSNKGLPSSIEKTISKAKGQPREPQVYTLPPCQEEMTKNQVSLWCLVKGFYPSDIAVEWESNGQPENNYKTTPPVLDSDGSFFLYSRLTVDKSRWQEGNVFSCSVMHEALHNHYTQKSLSLSLGK
notes: also called TweakIL17-0049 (control)
On to B2, for which the Kd in the test with TWEAK and with human IL17 [2] was < 0.1 nM in each case. The koff with TWEAK turned out to be 4.82e-05 s⁻¹; with human IL17 [1], 0.000123 s⁻¹. Moreover, the kon in the test with TWEAK stood at 1.27e+06 M⁻¹ s⁻¹; with human IL17 [1] it was 1.34e+06 M⁻¹ s⁻¹.

B3: TweakIL17-0130 (bispecific antibody, human IgG4 S228P, kappa)
light 1: DIVMTQSPLSLPVTPGEPASISCRSSQSLVHSNGDTYFHWYLQKPGQSPQLLIYKVSNRFSGVPDRFSGSGSGTDFTLKISRVEAEDVGVYYCSQTTHAPFTFGQGTKLEIKRTVAAPSVFIFPPSDKQLKSGTASVVCLLNNFYPREAKVQWKVDNALQSGNSQESVTEQDSKDSTYSLSSTLTLSKADYEKHKVYACEVTHQGLSSPVTKSFNRGEC
heavy 1: EVQLVESGGGLVQPGGSLRLSCAASGFSLDSYGVHWVRQATGKGLEWVSVIWSDGTTTYNSALKSRFTISRENAKNSLYLQMNSLRAGDTAVYYCARDTHYRLYYYAMDYWGQGTTVTVSSASTKGPSVFPLAPCSRSTSESTAALGCLVKDYFPEPVTVSWNSGALTSGVHTFPAVLQSSGLYSLSSVVTVPSSSLGTKTYTCNVDHKPSNTKVDERVESKYGPPCPPCPAPEFEGGPSVFLFPPKPKDTLMISRTPEVTCVVVDVSQEDPEVQFNWYVDGVEVHNAKTKPREEQFNSTYRVVSVLTVLHQDWLNGKEYKCKVSNKGLPSSIEKTISKAKGQPREPQVCTLPPSQEEMTKNQVSLSCAVKGFYPSDIAVEWESNGQPENNYKTTPPVLDSDGSFFLVSRLTVDKSRWQEGNVFSCSVMHEALHNHYTQKSLSLSLGK
light 2: DIQMTQSPSSVSASVGDRVTITCQASQNIYSNLAWYQQKPGKAPKLLIYTASYLASGVPSRFSGSGSGTDYTLTISSLQPEDFATYYCQTAYYNSRPDTVAFGGGTKVEIKSSASTKGPSVFPLAPCSRSTSESTAALGCLVKDYFPEPVTVSWNSGALTSGVHTFPAVLQSSGLYSLSSVVTVPSSSLGTKTYTCNVDHKPSNTKVDKRVESKYG
heavy 2: QVQLVQSGAEVKKPGSSVKVSCKASGFDFSTYYMSWVRQAPGQGLEWMGTVYVRQGTTYYASWLNGRVTITADESTSTAYMELSSLRSEDTAVYYCARGGYNYDDAFVIWGQGTLVTVSSASVAAPSVFIFPPSDEQLKSGTASVVCLLNNFYPREAKVQWKVDNALQSGNSQESVTEQDSKDSTYSLSSTLTLSKADYEKHKVYACEVTHQGLSSPVTKSFNRGECPPCPPCPAPEFEGGPSVFLFPPKPKDTLMISRTPEVTCVVVDVSQEDPEVQFNWYVDGVEVHNAKTKPREEQFNSTYRVVSVLTVLHQDWLNGKEYKCKVSNKGLPSSIEKTISKAKGQPREPQVYTLPPCQEEMTKNQVSLWCLVKGFYPSDIAVEWESNGQPENNYKTTPPVLDSDGSFFLYSRLTVDKSRWQEGNVFSCSVMHEALHNHYTQKSLSLSLGK
notes: as for B1
On to B3, for which the Kd with TWEAK and with human IL17 [2] was < 0.1 nM throughout. The koff with TWEAK is 2.83e-05 s⁻¹; in the test with human IL17 [1], 0.000194 s⁻¹. The kon is 859000 M⁻¹ s⁻¹ with TWEAK and 1.04e+07 M⁻¹ s⁻¹ in the test with human IL17 [1].
